Laboratory results taken from US20240400627A1 (YALE UNIVERSITY, published 2024).

Molecular target: T1, Nicotinamide Nucleotide Transhydrogenase (NNT), endogenous, mouse kidney (mouse, UniProt Q61941 44-1086)
T1 construct: Inner mitochondrial membrane protein; absent in C57BL/6J mice (deletion of exons 7-11 of Nnt)
T1 sequence (looked up): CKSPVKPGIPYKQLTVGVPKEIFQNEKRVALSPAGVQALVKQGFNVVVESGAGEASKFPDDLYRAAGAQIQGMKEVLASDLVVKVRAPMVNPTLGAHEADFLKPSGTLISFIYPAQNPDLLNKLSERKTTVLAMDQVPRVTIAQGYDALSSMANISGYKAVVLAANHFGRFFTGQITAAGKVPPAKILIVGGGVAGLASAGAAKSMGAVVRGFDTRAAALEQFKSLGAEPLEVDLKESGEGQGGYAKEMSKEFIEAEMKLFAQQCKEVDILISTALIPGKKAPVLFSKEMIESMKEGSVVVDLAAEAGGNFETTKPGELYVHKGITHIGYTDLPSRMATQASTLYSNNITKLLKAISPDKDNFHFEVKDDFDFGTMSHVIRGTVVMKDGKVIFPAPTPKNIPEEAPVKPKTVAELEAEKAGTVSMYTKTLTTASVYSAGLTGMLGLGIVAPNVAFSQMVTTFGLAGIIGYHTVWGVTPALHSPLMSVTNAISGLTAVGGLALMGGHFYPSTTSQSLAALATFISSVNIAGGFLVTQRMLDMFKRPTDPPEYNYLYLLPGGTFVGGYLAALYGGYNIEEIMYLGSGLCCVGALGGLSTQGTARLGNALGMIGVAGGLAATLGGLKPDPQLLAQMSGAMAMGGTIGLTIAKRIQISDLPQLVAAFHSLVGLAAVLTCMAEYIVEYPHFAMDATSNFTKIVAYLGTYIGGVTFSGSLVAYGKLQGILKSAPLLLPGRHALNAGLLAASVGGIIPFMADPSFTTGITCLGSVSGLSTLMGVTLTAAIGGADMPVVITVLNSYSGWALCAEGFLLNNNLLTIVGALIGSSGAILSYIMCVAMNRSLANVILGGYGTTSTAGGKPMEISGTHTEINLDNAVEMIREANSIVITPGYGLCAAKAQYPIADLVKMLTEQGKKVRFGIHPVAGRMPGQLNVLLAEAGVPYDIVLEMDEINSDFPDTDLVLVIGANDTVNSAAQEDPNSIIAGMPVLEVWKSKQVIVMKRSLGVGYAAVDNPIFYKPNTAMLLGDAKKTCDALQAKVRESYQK
Test: anti-HA immunoprecipitation from mouse kidney lysates, immunoblot
Procedure: Homogenates were then sonicated for 30 seconds (2×15 second bursts at 40% power) and incubated for 45 minutes on ice to complete protein solubilization. Lysates were centrifuged at 8000 rpm for 15 minutes. Protein concentrations were measured with the Protein Assay Dye Reagent Concentrate (catalog #5000006, Bio-Rad). Anti-HA magnetic beads (catalog #88837, ThermoFischer Scientific) were equilibrated in lysis buffer (50 μL beads per reaction in 500 μl of lysis buffer) for 10 minutes at room temperature on a rocking shaker, and then incubated with a total of 4 mg of tissue lysate per sample, overnight, at 4° C. Following four 5-minute washes with 1 ml lysis buffer, the dynabeads were magnetically recovered and precipitated proteins were eluted in 60 μl of 2× Laemmli sample buffer (catalog #1610747, Bio-Rad) with 300 mM Dithiothreitol (DTT). One-third of the eluted proteins (20 μl) was loaded per sample per gel for immunoblotting.
The alleles required to produce the Pkd1-KO+/−CTT mice were moved to this NNT-deficient background (J-Pkd1-KO and J-Pkd1-KO+CTT). […] No NNT was detected in glomeruli or Bowman's capsule. This pattern reproduced the one reported in the Human Protein Atlas (Uhlen, et al., Science Vol. 347, 1260419 (2015)). […] NNT was only detected in immunoprecipitates from “N” cystic mice that express CTT and not in those derived from N-Pkd1-KO mice that express NNT but not CTT.

B1: 2HA-PC1-CTT (final 200 amino acids of human polycystin-1, aa 4102-4302, with an N-terminal 2xHA epitope tag) (other, not shown: small tags and cut ends)
chain: VILRWRYHALRGELYRPAWEPQDYEMVELFLRRLRLWMGLSKVKEFRHKVRFEGMEPLPSRSSRGSKVSPDVPPPSAGSDASHPSTSSSQLDGLSVSLGRLGTRCEPEPSRLQAVFEALLTQFDRLNQATEDVYQLEQQLHSLQGRRSSRAPAGSSRGPSPGLRPALPSRLARASRGVDLATGPSRTPLRAKNKVHPSST
notes: Expressed from a BAC transgene in renal epithelial cells of Pkd1-KO+CTT mice; detected as a 37-kDa HA-tagged band; also called 2HA-PKD1-CTT; polycystin-1 C-terminal tail
B1: binds.
